We go through 6 molecules from US20140087995A1 (published 2014).

Numbered stars: 1 amine (or outer) side, 2 acyl side, 3 side chain; on linkers, the order of the positions; unused ones are H or OH. Bridge positions count the residues as written; N and C are the ends. * marks the point of attachment. C20 diacid = O=C(O)CCCCCCCCCCCCCCCCCCC(=O)*; γGlu = O=C(O)[C@H](CCC(=O)[*:2])N[*:1]

The chains are these.
B1: N^α1-[(4S)-4-carboxy-4-(19-carboxynonadecanoylamino)butanoyl]-[Asp14,Arg17,Pro21,Pro27,Pro37]-h-amylin (peptide)
peptide: {C20 diacid-γGlu}-KCNTATCATQRLADFLRHSSPNFGAIPSSTNVGSNTP-NH2
modifications: disulfide 2-7
SMILES: CC[C@H](C)[C@H](NC(=O)[C@H](C)NC(=O)CNC(=O)[C@H](Cc1ccccc1)NC(=O)[C@H](CC(N)=O)NC(=O)[C@@H]1CCCN1C(=O)[C@H](CO)NC(=O)[C@H](CO)NC(=O)[C@H](Cc1c[nH]cn1)NC(=O)[C@H](CCCNC(=N)N)NC(=O)[C@H](CC(C)C)NC(=O)[C@H](Cc1ccccc1)NC(=O)[C@H](CC(=O)O)NC(=O)[C@H](C)NC(=O)[C@H](CC(C)C)NC(=O)[C@H](CCCNC(=N)N)NC(=O)[C@H](CCC(N)=O)NC(=O)[C@@H](NC(=O)[C@H](C)NC(=O)[C@@H]1CSSC[C@H](NC(=O)[C@H](CCCCN)NC(=O)CC[C@H](NC(=O)CCCCCCCCCCCCCCCCCCC(=O)O)C(=O)O)C(=O)N[C@@H](CC(N)=O)C(=O)N[C@@H]([C@@H](C)O)C(=O)N[C@@H](C)C(=O)N[C@@H]([C@@H](C)O)C(=O)N1)[C@@H](C)O)C(=O)N1CCC[C@H]1C(=O)N[C@@H](CO)C(=O)N[C@@H](CO)C(=O)N[C@H](C(=O)N[C@@H](CC(N)=O)C(=O)N[C@H](C(=O)NCC(=O)N[C@@H](CO)C(=O)N[C@@H](CC(N)=O)C(=O)N[C@H](C(=O)N1CCC[C@H]1C(N)=O)[C@@H](C)O)C(C)C)[C@@H](C)O
notes: also called compound 10
B2: N^α1-[(4S)-4-carboxy-4-(19-carboxynonadecanoylamino)butanoyl]-[Glu14,Arg17,Pro21,Pro27,Asp35,Pro37]-h-amylin (peptide)
peptide: {C20 diacid-γGlu}-KCNTATCATQRLAEFLRHSSPNFGAIPSSTNVGSDTP-NH2
modifications: disulfide 2-7
SMILES: CC[C@H](C)[C@H](NC(=O)[C@H](C)NC(=O)CNC(=O)[C@H](Cc1ccccc1)NC(=O)[C@H](CC(N)=O)NC(=O)[C@@H]1CCCN1C(=O)[C@H](CO)NC(=O)[C@H](CO)NC(=O)[C@H](Cc1c[nH]cn1)NC(=O)[C@H](CCCNC(=N)N)NC(=O)[C@H](CC(C)C)NC(=O)[C@H](Cc1ccccc1)NC(=O)[C@H](CCC(=O)O)NC(=O)[C@H](C)NC(=O)[C@H](CC(C)C)NC(=O)[C@H](CCCNC(=N)N)NC(=O)[C@H](CCC(N)=O)NC(=O)[C@@H](NC(=O)[C@H](C)NC(=O)[C@@H]1CSSC[C@H](NC(=O)[C@H](CCCCN)NC(=O)CC[C@H](NC(=O)CCCCCCCCCCCCCCCCCCC(=O)O)C(=O)O)C(=O)N[C@@H](CC(N)=O)C(=O)N[C@@H]([C@@H](C)O)C(=O)N[C@@H](C)C(=O)N[C@@H]([C@@H](C)O)C(=O)N1)[C@@H](C)O)C(=O)N1CCC[C@H]1C(=O)N[C@@H](CO)C(=O)N[C@@H](CO)C(=O)N[C@H](C(=O)N[C@@H](CC(N)=O)C(=O)N[C@H](C(=O)NCC(=O)N[C@@H](CO)C(=O)N[C@@H](CC(=O)O)C(=O)N[C@H](C(=O)N1CCC[C@H]1C(N)=O)[C@@H](C)O)C(C)C)[C@@H](C)O
notes: also called compound 11
B3: N^α1-[(4S)-4-carboxy-4-[[(4S)-4-carboxy-4-(19-carboxynonadecanoylamino)butanoyl]amino]butanoyl]-[Glu14,Arg17,Pro21,Pro27,Pro37]-h-amylin (peptide)
peptide: {C20 diacid-γGlu-γGlu}-KCNTATCATQRLAEFLRHSSPNFGAIPSSTNVGSNTP-NH2
modifications: disulfide 2-7
SMILES: CC[C@H](C)[C@H](NC(=O)[C@H](C)NC(=O)CNC(=O)[C@H](Cc1ccccc1)NC(=O)[C@H](CC(N)=O)NC(=O)[C@@H]1CCCN1C(=O)[C@H](CO)NC(=O)[C@H](CO)NC(=O)[C@H](Cc1c[nH]cn1)NC(=O)[C@H](CCCNC(=N)N)NC(=O)[C@H](CC(C)C)NC(=O)[C@H](Cc1ccccc1)NC(=O)[C@H](CCC(=O)O)NC(=O)[C@H](C)NC(=O)[C@H](CC(C)C)NC(=O)[C@H](CCCNC(=N)N)NC(=O)[C@H](CCC(N)=O)NC(=O)[C@@H](NC(=O)[C@H](C)NC(=O)[C@@H]1CSSC[C@H](NC(=O)[C@H](CCCCN)NC(=O)CC[C@H](NC(=O)CC[C@H](NC(=O)CCCCCCCCCCCCCCCCCCC(=O)O)C(=O)O)C(=O)O)C(=O)N[C@@H](CC(N)=O)C(=O)N[C@@H]([C@@H](C)O)C(=O)N[C@@H](C)C(=O)N[C@@H]([C@@H](C)O)C(=O)N1)[C@@H](C)O)C(=O)N1CCC[C@H]1C(=O)N[C@@H](CO)C(=O)N[C@@H](CO)C(=O)N[C@H](C(=O)N[C@@H](CC(N)=O)C(=O)N[C@H](C(=O)NCC(=O)N[C@@H](CO)C(=O)N[C@@H](CC(N)=O)C(=O)N[C@H](C(=O)N1CCC[C@H]1C(N)=O)[C@@H](C)O)C(C)C)[C@@H](C)O
notes: also called compound 14
B4: N^α1-[(4S)-4-carboxy-4-(19-carboxynonadecanoylamino)butanoyl]-[Glu14,Arg17,Pro21,Pro27,His35]-h-amylin (peptide)
peptide: {C20 diacid-γGlu}-KCNTATCATQRLAEFLRHSSPNFGAIPSSTNVGSHTY-NH2
modifications: disulfide 2-7
SMILES: CC[C@H](C)[C@H](NC(=O)[C@H](C)NC(=O)CNC(=O)[C@H](Cc1ccccc1)NC(=O)[C@H](CC(N)=O)NC(=O)[C@@H]1CCCN1C(=O)[C@H](CO)NC(=O)[C@H](CO)NC(=O)[C@H](Cc1c[nH]cn1)NC(=O)[C@H](CCCNC(=N)N)NC(=O)[C@H](CC(C)C)NC(=O)[C@H](Cc1ccccc1)NC(=O)[C@H](CCC(=O)O)NC(=O)[C@H](C)NC(=O)[C@H](CC(C)C)NC(=O)[C@H](CCCNC(=N)N)NC(=O)[C@H](CCC(N)=O)NC(=O)[C@@H](NC(=O)[C@H](C)NC(=O)[C@@H]1CSSC[C@H](NC(=O)[C@H](CCCCN)NC(=O)CC[C@H](NC(=O)CCCCCCCCCCCCCCCCCCC(=O)O)C(=O)O)C(=O)N[C@@H](CC(N)=O)C(=O)N[C@@H]([C@@H](C)O)C(=O)N[C@@H](C)C(=O)N[C@@H]([C@@H](C)O)C(=O)N1)[C@@H](C)O)C(=O)N1CCC[C@H]1C(=O)N[C@@H](CO)C(=O)N[C@@H](CO)C(=O)N[C@H](C(=O)N[C@@H](CC(N)=O)C(=O)N[C@H](C(=O)NCC(=O)N[C@@H](CO)C(=O)N[C@@H](Cc1c[nH]cn1)C(=O)N[C@H](C(=O)N[C@@H](Cc1ccc(O)cc1)C(N)=O)[C@@H](C)O)C(C)C)[C@@H](C)O
notes: also called compound 18
B5: N^α1-[(4S)-4-carboxy-4-(19-carboxynonadecanoylamino)butanoyl]-[Glu14,Arg17,Pro21,Pro27,Pro29]-h-amylin (peptide)
peptide: {C20 diacid-γGlu}-KCNTATCATQRLAEFLRHSSPNFGAIPSPTNVGSNTY-NH2
modifications: disulfide 2-7
SMILES: CC[C@H](C)[C@H](NC(=O)[C@H](C)NC(=O)CNC(=O)[C@H](Cc1ccccc1)NC(=O)[C@H](CC(N)=O)NC(=O)[C@@H]1CCCN1C(=O)[C@H](CO)NC(=O)[C@H](CO)NC(=O)[C@H](Cc1c[nH]cn1)NC(=O)[C@H](CCCNC(=N)N)NC(=O)[C@H](CC(C)C)NC(=O)[C@H](Cc1ccccc1)NC(=O)[C@H](CCC(=O)O)NC(=O)[C@H](C)NC(=O)[C@H](CC(C)C)NC(=O)[C@H](CCCNC(=N)N)NC(=O)[C@H](CCC(N)=O)NC(=O)[C@@H](NC(=O)[C@H](C)NC(=O)[C@@H]1CSSC[C@H](NC(=O)[C@H](CCCCN)NC(=O)CC[C@H](NC(=O)CCCCCCCCCCCCCCCCCCC(=O)O)C(=O)O)C(=O)N[C@@H](CC(N)=O)C(=O)N[C@@H]([C@@H](C)O)C(=O)N[C@@H](C)C(=O)N[C@@H]([C@@H](C)O)C(=O)N1)[C@@H](C)O)C(=O)N1CCC[C@H]1C(=O)N[C@@H](CO)C(=O)N1CCC[C@H]1C(=O)N[C@H](C(=O)N[C@@H](CC(N)=O)C(=O)N[C@H](C(=O)NCC(=O)N[C@@H](CO)C(=O)N[C@@H](CC(N)=O)C(=O)N[C@H](C(=O)N[C@@H](Cc1ccc(O)cc1)C(N)=O)[C@@H](C)O)C(C)C)[C@@H](C)O
notes: also called compound 37
B6: N^α1-[(4S)-4-carboxy-4-(19-carboxynonadecanoylamino)butanoyl]-[Glu14,Arg17,Pro21,Pro27,Pro37]-h-amylin (peptide)
peptide: {C20 diacid-γGlu}-KCNTATCATQRLAEFLRHSSPNFGAIPSSTNVGSNTP-NH2
modifications: disulfide 2-7
notes: also called compound 8

In the first assay the target is T1, human calcitonin receptor (human, UniProt P30988 25-474).
T1 sequence (looked up): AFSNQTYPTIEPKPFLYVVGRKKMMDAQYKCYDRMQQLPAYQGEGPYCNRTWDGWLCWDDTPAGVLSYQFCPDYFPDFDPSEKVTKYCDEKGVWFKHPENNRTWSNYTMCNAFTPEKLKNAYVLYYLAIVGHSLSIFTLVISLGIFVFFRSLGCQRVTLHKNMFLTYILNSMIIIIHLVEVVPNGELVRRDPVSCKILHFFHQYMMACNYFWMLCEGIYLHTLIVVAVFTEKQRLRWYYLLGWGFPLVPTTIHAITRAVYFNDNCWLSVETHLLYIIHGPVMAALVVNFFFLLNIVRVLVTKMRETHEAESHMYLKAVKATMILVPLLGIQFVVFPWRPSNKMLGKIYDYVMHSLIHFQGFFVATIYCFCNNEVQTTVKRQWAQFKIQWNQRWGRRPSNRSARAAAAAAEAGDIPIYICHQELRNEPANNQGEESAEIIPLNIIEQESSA
As to the kind of experiment: cell-based or functional assay.
On to B1, for which the “Ratio hCT/hAmylin funct.” value was 1 ratio.

Regarding B2, the “Ratio hCT/hAmylin funct.” value was found to be 0.9 ratio.

Consider B3, for which the “Ratio hCT/hAmylin funct.” value amounted to 1.6 ratio.

Consider B4, for which the “Ratio hCT/hAmylin funct.” value was determined as 4.8 ratio.

Regarding B5, the “Ratio hCT/hAmylin funct.” value amounted to 4 ratio.

With B6, the “Ratio hCT/hAmylin funct.” value is 1.1 ratio.

The next assay addresses T2, human amylin receptor (amylin 3(a) receptor: human calcitonin receptor with RAMP-3) (human, UniProt P30988 25-474; O60896 24-148, limits assumed).
T2 construct: whole, on cells; Whole cells in the luciferase assay (Assay II a); also called hAmylin-R; hAmylinR
T2 sequence (looked up) 1: T1 sequence (looked up)
T2 sequence (looked up) 2: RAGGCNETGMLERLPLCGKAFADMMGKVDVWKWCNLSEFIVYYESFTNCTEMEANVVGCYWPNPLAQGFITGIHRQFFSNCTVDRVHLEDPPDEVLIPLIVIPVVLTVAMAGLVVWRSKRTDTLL
The experiment in a line: SPA competition binding on membranes of BHK cells with human calcitonin receptor + RAMP-3; displacement of 125I-rat amylin (Assay V). On the procedure:
The binding assay was performed using scintillation proximity assay (SPA) beads (RPNQ0001) from PerkinElmer and cell membranes from the Amylin 3(a)/CRE-luc cells (as described in Assay (II)) were used. Membranes were prepared in the following way; the cells were rinsed with PBS and incubated with Versene for approximately 5 min before harvesting. The cells were flushed with PBS and the cell-suspension was centrifuged for 5 min at 1000 rpm. Cells were homogenized (ultrathurrax) in a buffer containing 20 mM Na-HEPES and 10 mM EDTA (pH 7.4) and centrifuged at 20.000 rpm for 15 min. The resulting pellet was resuspended, homogenized and centrifuged (20.000 rpm, 15 min) in a buffer containing 20 mM Na-HEPES and 0.1 mM EDTA (pH 7.4, buffer 2). The resulting pellet was resuspended in buffer 2 and protein concentration was measured (BCA protein Assay, Pierce). The homogenate was kept cold during the whole procedure. The membranes were kept at −80° C. until use. The assay was performed in a 384 well Optiplate (PerkinElmer) in a total volume of 40 ul. Membranes were mixed with SPA beads. Final concentration of membranes 35 ng/μL final and SPA beads was 0.05 mg/well. Test-compounds were dissolved in DMSO and further diluted in assay buffer (50 mM Hepes, pH 7.4, 1 mM CaCl2, 5 mM MgCl₂, 0.1% OA and 0.02% Tween20). […] The final mixture was incubated with shaking at 400 rpm for 120 min at 25° C. prior to centrifugation (1500 rpm, 10 min). Samples were analyzed on TopCounter™ (Packard). The IC₅₀ was calculated using (one site binding competition analysis) GraphPad Prism5 as a measure of receptor affinity.
(In general: Loss of bound radioactivity is the signal in a displacement assay; it reports binding, not function.)
Usually IC50 stands for the concentration that gives 50% inhibition. For B1, the IC50 came to 82 pM.

With B2, the IC50 was determined as 105 pM.

In the case of B3, the IC50 came out at 196 pM.

Take B4: the IC50 was determined as 554 pM.

Turning to B5, the IC50 is 970 pM.

Take B6: the IC50 is 72 pM.
